Measurements as given in the RNAGym collection of RNA variant scans (doi:10.1073/pnas.2313332121).

B1: TPR t1 (parent)
chain: GACCAAUCUGCCCUCAGAGCUCGAGAACAUCUUCGGAUGCAGAGGAGGCAGGCUUCGGUGGCGCGAUAGCGCCAACGUCCUCAACCUCCAAUGCAUCCCACCACAUGAUGAUGCCUGAAGAGCCUUGGUUUUUUG

Variants of: B1
Assay: polymerase ribozyme fitness, log enrichment relative to wild type (log ratio); higher = more active; in vitro selection for triplet polymerase activity
In short: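 Each subunit of a heterodimeric triplet polymerase ribozyme was represented by a PCR-built, transcribed mutant library that underwent triplicate single-round in vitro selection with frozen incubation at −7 °C. Extended constructs were recovered by gel excision, streptavidin-bead capture and RT-PCR, and Illumina sequencing of input and output libraries kept genotypes with ≥10 input reads and ≥1 read per output. Fitness is the logarithm of genotype enrichment relative to wild-type enrichment, from inverse-variance-weighted replicate averages, with a logarithm base of 2.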

Variant	polymerase ribozyme fitness (log ratio)
A43C C49U G63U A66C	-5.38
A5U G51A G113A C124A	-3.34
G52U	-0.82
G44U G71C G93A	-3.04
C64U U92C G113A G127U U131C	-3.48
C56U U78G G93U G113A	-2.45
A108U C123G	-3.08
G47U U125G	-2.32
C53U G69U C73U	0.0642
C73U C76U C97U U112A U129A	-1.35
U7A G36U G61U C124G	0.266
C8U C40U G51C G120C	-1.98
A26C U106A	-3.34
C70A C79A A91C G120U	-7.09
C49A G69A G77A G122A	-4.61
U21G G61C U87A U133G G135U	-3.09
C28A U96A C97A G110A C124A	-3.05
A43U A50C G77A U126C	-3.5
C99A C102U	-4.82
A6G C49G G51U C73G U133A	-2.49
A5G C12A U59C	0.0118
G35A G39A C70U C72U U109G C124U	-7.05
U33A C62G C73A U78G	-5.54
C8A A84G	0.231

Variant	polymerase ribozyme fitness (log ratio)
G44U C94A	-2.53
C72A G93A C98U U125G	-1.8
G10U G57A G60A	-0.571
G77A A111C A119U C123A U131C	-2.38
C49G U59G	-0.612
C11A C49G U129C	-2.01
C15A C72A	-1.94
C15G G107A	-5.32
A16U G110A	-2.07
A27C C76A	-5.92
G44A G61C	-3.11
C114U U129G	-4.52
G48U C49U A91C	-2.49
U92C A118U	-0.718
G17A G48C	-4.15
C49G G61A	-0.914
C3U A16U G71A	-2.38
G52C C85U G117C	-5.83
U55G U132A	-0.283
C8G C40G U54C C99U C104U	-2.91
U7A G45U C56G A66G	-3.29
C22G A83C	-3.33
C8U C15U C72G G120U	1.39
G47U G58A A83C	-2.55

Variant	polymerase ribozyme fitness (log ratio)
C15G C73U G107U G117C	-3.77
U30C C56U	-2.08
C28U U32A C70U G120C	-6.64
U7C A16C G52C G110A U130A	-5.74
A6U C102A C123G	-0.023
U21C U96G C114U	-1.48
A5G G52C C70G C82U	-3.85
A27G G51U G61A U92A	-6.49
C73G C98A	-6.22
C4U C12U G61A	-0.369
G71U C99U G120U	-4.26
A5G G36U A46U G60U A91G U106A	-4.94
G60A C79U U130A	0.0156
G10C G69A	-4.78
C8G A18U G52U A90C	-1.7
G71A A105U	-3.04
C13G G44A G48C U55G C79U C124G	-0.404
A27C C72A C79U G113U	-6.86
U14A A37C C40A G69U	-4.24
C4A C13A U54G C56A G77A	-4.73
U21A A26G C40G C49A	-3.04
C15G C70G A90G C114G	-6.41
G42A U55C A95C U109A	-6.59
C98U U116C	-1.99

Variant	polymerase ribozyme fitness (log ratio)
G48A C72A C115A	-0.421
A37G C114A	-1.28
C15A A41C	-3.59
C49A G51U G52U A90G A119U	-2.42
C13A C20U G61U	-2.05
U21C G42A U109A G117C	-7.38
G10A G61U G122A	0.738
C4G A5U U55C G113A	-4.56
C31U G36A G61A U87A U106A	-2.2
C115A G122A	-0.767
G10U C20G C99U C115U	-8.2
A66U C94A	-2.12
A6U G44U	-1.52
C34A C123A	-2.18
G17A G52C G60C U81C C115G	-3.56
C12U G51U C73A U92A G113U U116G	-7.04
U14A G61A G117A	-4.06
G69U U126G	-0.571
C20G	-3.76
C8U U96C	0.939
G10A C20U A27C G61U C102U	-6.05
G69U C82A C104U	0.152
A6U C8G C73G C88A U92G C98A G113U	-6.38
G77C G110U	-1.93

Variant	polymerase ribozyme fitness (log ratio)
A37U A111U	-3.3
G47U C89U	-3.28
G48A C80U U96A C114U	-3.73
C49U A50G G71U A105U	-4.83
U7A G61A C73A C104G U109C	-6.61
A18U U55G C82G G120A	-3.38
A16C C49G C101A	-4.66
G71A U116C	-1.26
G51C C72A U129G	-4.58
A37C G44A C53U C104U	-1.64
G45A G48A G51U A83U U126G	-5.24
G48A C72U	-0.785
U116A A121G	0.178
G44C C88G	-2.18
C12A C76A C82A U92G	-4.72
C28G C56A C73G U106C	-4.85
U59C A66G	-1.47
U92A A118U	-1.95
A6U C40U C56U G69C A121C	-6.3
C12G C88U A105U C123A	-0.335
C31U G63A	-5.33
C72U C88G A90C A91G	-4.6
U30C C70U	-2.92
A29U G61C C72A	-1.68

Variant	polymerase ribozyme fitness (log ratio)
U7C C11G C82U	0.131
A50U G61U	-0.766
C31U G60U	-4.38
A24U A84U C114U G122A U132C	-6.39
A6G A41U C70U C124A	-0.611
A16C U87A	-2.49
C72U C79G G113C A118U	-5.9
A16U C89U	-1.23
A18G G36A G61A U116C A118G	-3.23
G10C U87A	-0.978
A84U G110C U130C	-4.16
C12U C79U	0.083
U21A G60A A90G	-0.182
C8A G42U U96A A100U	-2.37
G44A C72U G93U C97U U131A	-2.85
A50C G93U U112G	-2.03
U9C A27C C40G C72A	-3.22
G44C C94U	-1.02
U21G G47A C114A C123G U125A	-1.52
G36U C102A C123U	-2.11
C72G G93C	-1.92
C20G G93C	-4.4
U38G C79G	-2.67
A29U G52C C73G U129A	-4.18

Variant	polymerase ribozyme fitness (log ratio)
C99U G117U	-3.93
U7G G60U	-0.565
C70G A84G	-5.21
A27G A84C C99U	-5.83
G35U C123A	-3.61
U129A	-1.11
G48A A50G G69U C76A U78C	-2.05
G52C C124U	1.26
C20G C62U	-3.29
C8G G117A	0.795
U87A C123A	0.223
G69C G113C	-4.05
G45C A84G U87G	-3.02
G52C C73G C82A	-1.97
U55A C79G	-0.669
C53U A91C U92A G122A	-4.02
G47U G58U C88U	-2.22
C15U C88A A91C	-2.47
C15A C40A	-3.27
C53G U126A	-2.29
U59G C72A	-2.02
A66U U106A G117A	-2
U81A C115G	-2.4
